This passage reports BMP6-induced melanin content in human epidermal melanocytes (72 h) results from patent US20110206625A1.

The target in the assay is recombinant human BMP6 (human) (UniProt P22004). Kind of assay: cell-based or functional assay.
UniProt P22004, sequence (P22004 382-513 limits assumed): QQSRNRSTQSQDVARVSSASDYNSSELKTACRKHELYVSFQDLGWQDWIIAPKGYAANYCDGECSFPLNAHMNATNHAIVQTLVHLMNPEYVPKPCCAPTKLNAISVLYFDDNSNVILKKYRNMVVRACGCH

Take “recombinant human Sclerostin (from UniProt Q9BQB4 24-213)”: the BMP6-induced melanin content in human epidermal melanocytes (72 h) was 15%.
